Like-named read-outs stand apart in the source and are kept apart here.
T1: CREB (unmodified) (UniProt P16220 254-327)
T1 construct: also called CREB protein
T1 sequence (looked up): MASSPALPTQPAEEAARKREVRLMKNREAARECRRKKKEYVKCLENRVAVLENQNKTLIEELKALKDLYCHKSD

B1: c-Jun (unmodified) (other, UniProt P05412 241-331, looked up)
chain: PLSPIDMESQERIKAERKRMRNRIAASKCRKRKLERIARLEEKVKTLKAQNSELASTANMLREQVAQLKQKVMNHVNSGCQLMLTQQLQTF
B2: 4heptadCREB (CREB with the 4heptad acidic extension appended at the amino terminus) (designed binder)
chain: ASMTGGQQMGRDPDLEQRAEELARENEELEKEAEELEQENAELENRVAVLENQNKTLIEELKALKDLYCHKSD
notes: also called 4hep-CREB
B3: 1heptad-F (designed binder)
chain: ASMTGGQQMGRDPGGGLEQENAELEQEVLELESRNDRLRKEVEQLERELDTLRGIFRQLPESSLVKAMGNCA
B4: 4heptad-F (designed binder)
chain: ASMTGGQQMGRDPGGGLEQRAEELARENEELEKEAEELEQENAELEQEVLELESRNDRLRKEVEQLERELDTLRGIFRQLPESSLVKAMGNCA
notes: also called 4heptad-F zipper protein
B5: 2heptad-F (designed binder)
chain: ASMTGGQQMGRDPGGGLEKEAEELEQENAELEQEVLELESRNDRLRKEVEQLERELDTLRGIFRQLPESSLVKAMGNCA
B6: 0heptadMax (dimerization domain of Max without an acidic extension) (designed binder)
chain: ASMTGGQQMGRDPDLEELEDSFHSLRDSVPSLQGEKASRAQILDKATEYIQYMRRKNHTHQQDIDDLKRQNALLEQQVRALEKARSSAQLQT
notes: domain: dimerization domain; also called OheptadMax
B7: AcidMax (Max with a polyglutamic acid extension) (designed binder)
chain: MASMTGGQQMGRDPDEEEDDEEELEELEDSFHSLRDSVPSLQGEKASRAQILDKATEYIQYMRRKNHTHQQDIDDLKRQNALLEQQVRALEKARSSAQLQT
B8: 3heptad-F with the DP- N-terminal cap (designed binder)
chain: ASMTGGQQMGRDPLARENEELEKEAEELEQENAELEQEVLELESRNDRLRKEVEQLERELDTLRGIFRQLPESSLVKAMGNCA
notes: Built from the statement that DP- replaces DP-GGG; also called DP- cap
B9: GBF-C/EBP chimeric protein (other)
chain: PVKDERELKRQKRKQSNRESARRSRLRNEAECEQTQQKVLELTSDNDRLRKRVEQLSRELDTLRGIFRQLPESSLVKAMGNCA
B10: 3heptad-C/EBP (three heptad acidic extension appended onto the C/EBP leucine zipper) (designed binder)
chain: ASMTGGQQMGRDPGGGLARENEELEKEAEELEQENAELEQKVLELTSDNDRLRKRVEQLSRELDTLRGIFRQLPESSLVKAMGNCA
B11: c-Fos (unmodified) (other)
chain: PDKVEQLSPEEEEKRRIRRERNKMAAAKCRNRRRELTDTLQAETDQLEDEKSALQTEIANLLKEKEKLEFILAAHRPACKIP
notes: also called human c-Fos protein
B12: 3heptad-F with the DP-D N-terminal cap (designed binder)
chain: ASMTGGQQMGRDPDLARENEELEKEAEELEQENAELEQEVLELESRNDRLRKEVEQLERELDTLRGIFRQLPESSLVKAMGNCA
notes: Built from the statement that DP-D replaces DP-GGG; also called DP-D cap; DPD cap
B13: 0heptad-F (F zipper with the basic region deleted) (designed binder)
chain: ASMTGGQQMGRDPGGGTQQEVLELESRNDRLRKEVEQLERELDTLRGIFRQLPESSLVKAMGNCA
notes: Made in E. coli; the initiator methionine is processed off; also called heterodimerizing zipper; 0heptad-F (H)
B14: new4heptadFos (4heptadFos with one asparagine of the acidic region changed to leucine) (designed binder)
chain: ASMTGGQQMGRDPDLEQRAEELARENEELEKEAEELEQELAELEAETDQLEDEKSALQTEIANLLKEKEKLEFILAAHRPACKIP
notes: also called N4heptad-Fos
B15: New4hepCREB (CREB with the new 4heptad extension, asparagine changed to leucine) (designed binder)
chain: MDYKDDDDKHMASMTGGQQMGRDPDLEQRAEELARENEELEKEAEELEQELAELENRVAVLENQNKTLIEELKALKDLYCHKSD
notes: also called New4heptadCREB; CMV500-4heptadCREB
B16: C/EBP bZIP domain (GCN4-C/EBP chimeric protein) (other)
chain: SEYQPSLFALNPMGFSPLDGSKSTNENVSASTSTAKPMVGQLIFDKFIKTEEDPGKAKKSVDKNSNEYRVRRERNNIAVRKSRDKAKQRNVETQQKVLELTSDNDRLRKRVEQLSRELDTLRGIFRQLPESSLVKAMGNCA
notes: Made in E. coli; forms a homodimer; also called C/EBP-C/EBP; wild type C/EBP
B17: VBP-C/EBP chimeric protein (other)
chain: ASMTGGQQMGRDPLEEKVFVPDEQKDEKYWTRRKKNNVAAKRSRDARRLKENQTQQKVLELTSDNDRLRKRVEQLSRELDTLRGIFRQLPESSLVKAMGNCA

Key:
[1] = target: the molecule itself; assay: from thermal melts of FIG. 4, Kd at 37 C
CREB (unmodified) [2] = target: T1, CREB (unmodified); assay: thermal melt, CREB with 4heptadCREB (FIG. 3)
[3] = target: the molecule itself; assay: CD thermal melt, homodimer, 150 mM KCl, Kd at 25 C
Protocol: (§1) CD analyses were performed as described in Materials and Methods of D. Krylov et al., 1994, *EMBO J.,* 13:2849–2861. T_m values were calculated as described in D, Krylov et al., 1994, Ibid, converted to K_{d(25)} and $\Delta G(25)$ using a $\Delta C_p$ of –0.96 kcal/mol° C.^-1 calculated from a T_m versus $\Delta H$ plot for all of the proteins as described herein. All thermal melts were reversible.
(§2) Table 1 presents the melting temperature (T_m,° C.), $\Delta G$ and k_d at 25° C. for CD thermal melts of a variety of proteins either as homodimers or an equimolar mixture of two proteins. […] The (L) denotes 'low' salt conditions (50 mM KCl, 25 mM Tris pH 8.0, 0.5 mM EDTA, 1 mM DTT) and the (H) denotes regular salt conditions (12.5 mM potassium phosphate, pH 7.4, 150 mM KCl, 0.25 mM EDTA, and 0.5 mM DTT). The latter conditions were used in Table 2. "0heptad-F" represents the F zipper with the basic region deleted. The RMS error in $\Delta G$ is 0.2 kcal/mol and 0.5 kcal/mol for homo- and heterodimers respectively.

[4] = target: the molecule itself; assay: CD thermal melt, homodimer, 150 mM KCl
Protocol: as §1, §2

[5] = target: B17; assay: CD thermal melt, equimolar mixture, 150 mM KCl, Kd at 25 C
Protocol: as §2
(§3) The two chimeras were mixed with the four different length acidic extensions appended to the F zipper and their stability was determined from CD thermal melts.

[6] = target: B16; assay: as above
Protocol: as §2, §3

[7] = target: B9; assay: as above
Protocol: as §2, §3

[8] = target: B17; assay: CD thermal melt, equimolar mixture, 150 mM KCl
Protocol: as §2, §3

[9] = target: B16; assay: CD thermal melt, equimolar mixture, 150 mM KCl
Protocol: as §2, §3

[10] = target: B9; assay: CD thermal melt, equimolar mixture, 150 mM KCl
Protocol: as §2, §3

[11] = target: B17; assay: CD thermal melts
[12] = target: B16; assay: CD thermal melts
[13] = target: B9; assay: CD thermal melts
[14] = target: B17; assay: thermal melt of the mixture (FIG. 1)
[15] = target: B16; assay: thermal melt of the mixture (FIG. 1)
[16] = target: B9; assay: thermal melt of the mixture (FIG. 1)
[17] = target: the molecule itself; assay: homodimer, dimerization study of FIG. 9
c-Myc bHLH protein = c-Myc bHLH protein (murine, UniProt P01108 368-454); assay: heterodimer with c-Myc, dimerization study of FIG. 9
Sequence of c-Myc bHLH protein (P01108 368-454 limits assumed, form in doubt): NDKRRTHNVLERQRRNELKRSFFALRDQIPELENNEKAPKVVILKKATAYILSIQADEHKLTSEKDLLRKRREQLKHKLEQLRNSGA

[18] = target: B16; assay: thermal stability as heterodimers with C/EBP
c-Jun (unmodified) [19] = target: B1; assay: thermal melt of the mixture (FIG. 4)
c-Jun (unmodified) [20] = target: B1; assay: from thermal melts of FIG. 4, Kd at 37 C
[21] = target: B16; assay: CD thermal melt, equimolar mixture, 150 mM KCl
Protocol: as §1, §2

[22] = target: B16; assay: CD thermal melt, equimolar mixture, 150 mM KCl, Kd at 25 C
Protocol: as §1, §2

[23] = target: the molecule itself; assay: CD thermal melt, homodimer, 150 mM KCl, Kd at 25 C; remark: listed apart in the source
Protocol: as §1, §2

CREB (unmodified) [24] = target: T1, CREB (unmodified); assay: thermal melt of the mixture (FIG. 3)
[25] = target: the molecule itself; assay: CD thermal melt, homodimer, low salt (50 mM KCl), Kd at 25 C
Protocol: as §1, §2

B1
Kd [1]: 20000 nM

B2
Tm (CREB (unmodified) [2]): 53 °C

B3
Kd [3]: 1000 nM | deltaG at 25 C [4]: -8 kcal/mol | Kd [5]: 0.3 nM | Kd [6]: 0.1 nM | Kd [7]: 0.2 nM | Tm [8]: 60.5 °C | deltaG at 25 C [8]: -13.1 kcal/mol | Tm [9]: 60.8 °C | deltaG at 25 C [9]: -13.5 kcal/mol | Tm [10]: 62 °C | deltaG at 25 C [10]: -13.2 kcal/mol | stabilization against 0heptad-F [11]: 0.9 kcal/mol | stabilization against 0heptad-F [12]: 1.7 kcal/mol | stabilization against 0heptad-F [13]: 1.3 kcal/mol

B4
Kd [3]: 20000 nM | deltaG at 25 C [4]: -6.3 kcal/mol | melting temperature (given as ellipticity) [14]: 65 °C | melting temperature (given as ellipticity) [15]: 65 °C | melting temperature (given as ellipticity) [16]: 65 °C | Kd [5]: 0.01 nM | Kd [6]: 0.04 nM | Kd [7]: 0.03 nM | Tm [8]: 65.2 °C | deltaG at 25 C [8]: -14.8 kcal/mol | Tm [9]: 64.8 °C | deltaG at 25 C [9]: -14.2 kcal/mol | Tm [10]: 65 °C | deltaG at 25 C [10]: -14.5 kcal/mol

B5
Kd [3]: 4000 nM | deltaG at 25 C [4]: -7.4 kcal/mol | Kd [5]: 0.09 nM | Kd [6]: 0.07 nM | Kd [7]: 0.1 nM | Tm [8]: 62.8 °C | deltaG at 25 C [8]: -13.8 kcal/mol | Tm [9]: 63.6 °C | deltaG at 25 C [9]: -13.9 kcal/mol | Tm [10]: 63.1 °C | deltaG at 25 C [10]: -13.6 kcal/mol

B6
Kd [17]: 100 nM

B7
Kd (c-Myc bHLH protein): 0.002 nM | Kd [17]: 30 nM

B8
fold stability against the DP-GGG cap [18]: 3 fold

B9
Kd [3]: 20 nM | deltaG at 25 C [4]: -10.6 kcal/mol

B10
Kd [6]: 0.6 nM | Tm [9]: 61 °C | deltaG at 25 C [9]: -12.6 kcal/mol

B11
Tm (c-Jun (unmodified) [19]): 50 °C | Kd (c-Jun (unmodified) [20]): 200 nM

B12
fold stability against the DP-GGG cap [18]: 3 fold

B13
Kd [3]: 1000 nM | Tm [21]: 55.4 °C | deltaG at 25 C [4]: -8 kcal/mol | Kd [22]: 3 nM | Kd [5]: 1 nM | Kd [6]: 3 nM | Kd [7]: 2 nM | Tm [8]: 55.1 °C | deltaG at 25 C [8]: -12.2 kcal/mol | Tm [9]: 55.4 °C | deltaG at 25 C [9]: -11.8 kcal/mol | Tm [10]: 55.7 °C | deltaG at 25 C [10]: -11.9 kcal/mol | Kd [23]: 2000 nM

B14
Tm (c-Jun (unmodified) [19]): 72 °C

B15
Tm (CREB (unmodified) [24]): 69.5 °C

B16
Kd [3]: 10 nM | deltaG at 25 C [4]: -10.9 kcal/mol | Kd [23]: 10 nM | Kd [25]: 30 nM

B17
Kd [3]: 8 nM | deltaG at 25 C [4]: -11.1 kcal/mol
